Results from US20260167699A1 (Chugai, published 2026).

B1: GpH7-A5/GpH7-B3 variant I336_11K/GpL16-k0 (antibody, human IgG1, kappa)
heavy 1: not shown
heavy 2: not shown
light: DIVMTQSPLSLPVTPGEPASISCQASESLVHSNRNTYLHWYLQKPGQSPQLLIYKVSNRFSGVPDRFSGSGSGTDFTLKISRVEAEDVGVYYCSQNTHVPPTFGQGTKVEIERTVAAPSVFIFPPSDEQLKSGTASVVCLLNNFYPREAKVQWKVDNALQSGNSQESVTEQDSKDSTYSLSSTLTLSKADYEKHKVYACEVTHQGLSSPVTKSFNRGEC
notes: heterodimerized IgG1 (He Ab), mutation in one H chain only; also called He Ab
B2: GpH7-A5/GpH7-B3 variant K334_03V/GpL16-k0 (antibody, human IgG1, kappa)
heavy 1: not shown
heavy 2: not shown
light: DIVMTQSPLSLPVTPGEPASISCQASESLVHSNRNTYLHWYLQKPGQSPQLLIYKVSNRFSGVPDRFSGSGSGTDFTLKISRVEAEDVGVYYCSQNTHVPPTFGQGTKVEIERTVAAPSVFIFPPSDEQLKSGTASVVCLLNNFYPREAKVQWKVDNALQSGNSQESVTEQDSKDSTYSLSSTLTLSKADYEKHKVYACEVTHQGLSSPVTKSFNRGEC
notes: as for B1
B3: GpH7-A5/GpH7-B3 variant I336_16H/GpL16-k0 (antibody, human IgG1, kappa)
heavy 1: not shown
heavy 2: not shown
light: DIVMTQSPLSLPVTPGEPASISCQASESLVHSNRNTYLHWYLQKPGQSPQLLIYKVSNRFSGVPDRFSGSGSGTDFTLKISRVEAEDVGVYYCSQNTHVPPTFGQGTKVEIERTVAAPSVFIFPPSDEQLKSGTASVVCLLNNFYPREAKVQWKVDNALQSGNSQESVTEQDSKDSTYSLSSTLTLSKADYEKHKVYACEVTHQGLSSPVTKSFNRGEC
notes: as for B1
B4: GpH7-A5/GpH7-B3 variant I336_15Y/GpL16-k0 (antibody, human IgG1, kappa)
heavy 1: not shown
heavy 2: not shown
light: DIVMTQSPLSLPVTPGEPASISCQASESLVHSNRNTYLHWYLQKPGQSPQLLIYKVSNRFSGVPDRFSGSGSGTDFTLKISRVEAEDVGVYYCSQNTHVPPTFGQGTKVEIERTVAAPSVFIFPPSDEQLKSGTASVVCLLNNFYPREAKVQWKVDNALQSGNSQESVTEQDSKDSTYSLSSTLTLSKADYEKHKVYACEVTHQGLSSPVTKSFNRGEC
notes: as for B1
B5: GpH7-A5/GpH7-B3 variant K334_02A/GpL16-k0 (antibody, human IgG1, kappa)
heavy 1: not shown
heavy 2: not shown
light: DIVMTQSPLSLPVTPGEPASISCQASESLVHSNRNTYLHWYLQKPGQSPQLLIYKVSNRFSGVPDRFSGSGSGTDFTLKISRVEAEDVGVYYCSQNTHVPPTFGQGTKVEIERTVAAPSVFIFPPSDEQLKSGTASVVCLLNNFYPREAKVQWKVDNALQSGNSQESVTEQDSKDSTYSLSSTLTLSKADYEKHKVYACEVTHQGLSSPVTKSFNRGEC
notes: as for B1
B6: GpH7-A5/GpH7-B3 variant I336_18N/GpL16-k0 (antibody, human IgG1, kappa)
heavy 1: not shown
heavy 2: not shown
light: DIVMTQSPLSLPVTPGEPASISCQASESLVHSNRNTYLHWYLQKPGQSPQLLIYKVSNRFSGVPDRFSGSGSGTDFTLKISRVEAEDVGVYYCSQNTHVPPTFGQGTKVEIERTVAAPSVFIFPPSDEQLKSGTASVVCLLNNFYPREAKVQWKVDNALQSGNSQESVTEQDSKDSTYSLSSTLTLSKADYEKHKVYACEVTHQGLSSPVTKSFNRGEC
notes: as for B1
B7: GpH7-A5/GpH7-B3 variant I336_13S/GpL16-k0 (antibody, human IgG1, kappa)
heavy 1: not shown
heavy 2: not shown
light: DIVMTQSPLSLPVTPGEPASISCQASESLVHSNRNTYLHWYLQKPGQSPQLLIYKVSNRFSGVPDRFSGSGSGTDFTLKISRVEAEDVGVYYCSQNTHVPPTFGQGTKVEIERTVAAPSVFIFPPSDEQLKSGTASVVCLLNNFYPREAKVQWKVDNALQSGNSQESVTEQDSKDSTYSLSSTLTLSKADYEKHKVYACEVTHQGLSSPVTKSFNRGEC
notes: as for B1
B8: GpH7-A5/GpH7-B3 variant K334_01G/GpL16-k0 (antibody, human IgG1, kappa)
heavy 1: not shown
heavy 2: not shown
light: DIVMTQSPLSLPVTPGEPASISCQASESLVHSNRNTYLHWYLQKPGQSPQLLIYKVSNRFSGVPDRFSGSGSGTDFTLKISRVEAEDVGVYYCSQNTHVPPTFGQGTKVEIERTVAAPSVFIFPPSDEQLKSGTASVVCLLNNFYPREAKVQWKVDNALQSGNSQESVTEQDSKDSTYSLSSTLTLSKADYEKHKVYACEVTHQGLSSPVTKSFNRGEC
notes: as for B1
B9: GpH7-A5/GpH7-B3 variant K334_04F/GpL16-k0 (antibody, human IgG1, kappa)
heavy 1: not shown
heavy 2: not shown
light: DIVMTQSPLSLPVTPGEPASISCQASESLVHSNRNTYLHWYLQKPGQSPQLLIYKVSNRFSGVPDRFSGSGSGTDFTLKISRVEAEDVGVYYCSQNTHVPPTFGQGTKVEIERTVAAPSVFIFPPSDEQLKSGTASVVCLLNNFYPREAKVQWKVDNALQSGNSQESVTEQDSKDSTYSLSSTLTLSKADYEKHKVYACEVTHQGLSSPVTKSFNRGEC
notes: as for B1
B10: GpH7-A5/GpH7-B3 variant I336_12R/GpL16-k0 (antibody, human IgG1, kappa)
heavy 1: not shown
heavy 2: not shown
light: DIVMTQSPLSLPVTPGEPASISCQASESLVHSNRNTYLHWYLQKPGQSPQLLIYKVSNRFSGVPDRFSGSGSGTDFTLKISRVEAEDVGVYYCSQNTHVPPTFGQGTKVEIERTVAAPSVFIFPPSDEQLKSGTASVVCLLNNFYPREAKVQWKVDNALQSGNSQESVTEQDSKDSTYSLSSTLTLSKADYEKHKVYACEVTHQGLSSPVTKSFNRGEC
notes: as for B1
B11: GpH7-A5/GpH7-B3 variant I336_19Q/GpL16-k0 (antibody, human IgG1, kappa)
heavy 1: not shown
heavy 2: not shown
light: DIVMTQSPLSLPVTPGEPASISCQASESLVHSNRNTYLHWYLQKPGQSPQLLIYKVSNRFSGVPDRFSGSGSGTDFTLKISRVEAEDVGVYYCSQNTHVPPTFGQGTKVEIERTVAAPSVFIFPPSDEQLKSGTASVVCLLNNFYPREAKVQWKVDNALQSGNSQESVTEQDSKDSTYSLSSTLTLSKADYEKHKVYACEVTHQGLSSPVTKSFNRGEC
notes: as for B1
B12: GpH7-A5/GpH7-B3 variant I336_14T/GpL16-k0 (antibody, human IgG1, kappa)
heavy 1: not shown
heavy 2: not shown
light: DIVMTQSPLSLPVTPGEPASISCQASESLVHSNRNTYLHWYLQKPGQSPQLLIYKVSNRFSGVPDRFSGSGSGTDFTLKISRVEAEDVGVYYCSQNTHVPPTFGQGTKVEIERTVAAPSVFIFPPSDEQLKSGTASVVCLLNNFYPREAKVQWKVDNALQSGNSQESVTEQDSKDSTYSLSSTLTLSKADYEKHKVYACEVTHQGLSSPVTKSFNRGEC
notes: as for B1
B13: GpH7-A5/GpH7-B3 variant K334_05P/GpL16-k0 (antibody, human IgG1, kappa)
heavy 1: not shown
heavy 2: not shown
light: DIVMTQSPLSLPVTPGEPASISCQASESLVHSNRNTYLHWYLQKPGQSPQLLIYKVSNRFSGVPDRFSGSGSGTDFTLKISRVEAEDVGVYYCSQNTHVPPTFGQGTKVEIERTVAAPSVFIFPPSDEQLKSGTASVVCLLNNFYPREAKVQWKVDNALQSGNSQESVTEQDSKDSTYSLSSTLTLSKADYEKHKVYACEVTHQGLSSPVTKSFNRGEC
notes: as for B1

Key:
Assay in all cases: SPR; % of GpH7-A5/GpH7-B3/GpL16-k0
[1] = biological target: T1, FcγRIIIa extracellular domain with C-terminal His tag (human, UniProt P08637 17-208)
T1 construct: extracellular domain; also called 3a; CD16

[2] = biological target: T2, FcγRIIa(H) extracellular domain with C-terminal His tag (human, UniProt P12318 34-217)
T2 construct: extracellular domain; H131 allotype; also called 2aH; CD32
T2 sequence: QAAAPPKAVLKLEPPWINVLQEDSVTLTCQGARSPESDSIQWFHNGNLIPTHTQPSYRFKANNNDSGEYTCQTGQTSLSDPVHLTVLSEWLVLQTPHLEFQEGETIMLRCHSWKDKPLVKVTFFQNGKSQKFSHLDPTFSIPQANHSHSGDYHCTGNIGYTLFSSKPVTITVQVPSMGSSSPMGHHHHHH

[3] = biological target: T3, FcγRIa extracellular domain with C-terminal His tag (human, UniProt P12314 16-292)
T3 construct: extracellular domain; also called 1a; CD64

[4] = biological target: T4, FcγRIIb extracellular domain with C-terminal His tag (human, UniProt P31994 43-217)
T4 construct: extracellular domain; also called 2b; CD32
T4 sequence: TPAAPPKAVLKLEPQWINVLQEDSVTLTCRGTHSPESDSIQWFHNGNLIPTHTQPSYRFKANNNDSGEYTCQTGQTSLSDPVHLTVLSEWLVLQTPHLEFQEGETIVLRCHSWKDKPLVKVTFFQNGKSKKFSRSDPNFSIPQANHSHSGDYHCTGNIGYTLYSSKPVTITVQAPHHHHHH

[5] = biological target: T5, FcγRIIa(R) extracellular domain with C-terminal His tag (human, UniProt P12318 34-217)
T5 construct: extracellular domain; R131 allotype; also called 2aR; CD32
T5 sequence: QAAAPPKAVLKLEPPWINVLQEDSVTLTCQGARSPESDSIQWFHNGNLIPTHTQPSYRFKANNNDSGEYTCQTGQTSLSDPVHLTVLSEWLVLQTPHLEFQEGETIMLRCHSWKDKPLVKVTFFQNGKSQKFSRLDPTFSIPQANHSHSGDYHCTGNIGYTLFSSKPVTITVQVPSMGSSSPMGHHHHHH

T1 sequence (P08637 other isoform, or with tags, fused parts or gaps): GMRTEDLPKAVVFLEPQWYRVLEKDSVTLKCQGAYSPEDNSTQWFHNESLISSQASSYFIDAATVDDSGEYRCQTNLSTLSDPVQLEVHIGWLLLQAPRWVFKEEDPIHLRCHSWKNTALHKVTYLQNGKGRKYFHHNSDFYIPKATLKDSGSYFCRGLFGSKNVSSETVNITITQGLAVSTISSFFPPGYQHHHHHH
T3 sequence (P12314 other isoform, or with tags, fused parts or gaps): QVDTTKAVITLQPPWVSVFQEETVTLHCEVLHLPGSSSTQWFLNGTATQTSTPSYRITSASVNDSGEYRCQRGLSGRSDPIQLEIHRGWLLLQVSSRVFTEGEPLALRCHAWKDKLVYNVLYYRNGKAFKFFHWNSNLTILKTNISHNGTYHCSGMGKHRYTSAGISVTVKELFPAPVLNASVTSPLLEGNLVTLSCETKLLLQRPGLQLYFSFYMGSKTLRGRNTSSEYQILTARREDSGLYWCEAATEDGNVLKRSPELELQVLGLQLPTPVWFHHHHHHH

Binder	He/Con 3a [1] [%]	He/Con 2aH [2] [%]	He/Con 1a [3] [%]	He/Con 2b [4] [%]	He/Con 2aR [5] [%]
B1	94.4	103	109	98.7	104
B2	154	126	99.1	161	160
B3	92.8	97.4	104	93.8	99.1
B4	83.4	84.6	106	74.5	83.1
B5	152	111	100	139	143
B6	99.4	107	111	107	110
B7	97.1	101	106	91.5	97.4
B8	125	92.5	98	119	127
B9	152	121	99.6	143	150
B10	88.8	104	105	101	104
B11	88.4	76.4	107	63.6	70.9
B12	103	103	108	97.8	102
B13	138	112	98.7	136	141
